In publication PMC4804749 one finds pKa data, which are given here for one protein.

For this data set, the target named is His111 (UniProt position 111, …). Kind of data set: NMR. To be noted: 288 K.

Turning to KTNMKHMAGA [Prion protein fragment PrP(106-115) (Homo sapiens)], the pKa (in general, the pH at which an ionisable group is half protonated) is given as “∼5”. Moreover, the pKa (Free peptide, no copper, 0.3 mM peptide) came to 6.2.
